From paper PMC10783487

Molecular target: T1, TbrCan2 E341A E341A (Thermoanaerobacter brockii subsp. finnii Ako-1 DSM 1457) (UniProt E8URK0)
T1 sequence: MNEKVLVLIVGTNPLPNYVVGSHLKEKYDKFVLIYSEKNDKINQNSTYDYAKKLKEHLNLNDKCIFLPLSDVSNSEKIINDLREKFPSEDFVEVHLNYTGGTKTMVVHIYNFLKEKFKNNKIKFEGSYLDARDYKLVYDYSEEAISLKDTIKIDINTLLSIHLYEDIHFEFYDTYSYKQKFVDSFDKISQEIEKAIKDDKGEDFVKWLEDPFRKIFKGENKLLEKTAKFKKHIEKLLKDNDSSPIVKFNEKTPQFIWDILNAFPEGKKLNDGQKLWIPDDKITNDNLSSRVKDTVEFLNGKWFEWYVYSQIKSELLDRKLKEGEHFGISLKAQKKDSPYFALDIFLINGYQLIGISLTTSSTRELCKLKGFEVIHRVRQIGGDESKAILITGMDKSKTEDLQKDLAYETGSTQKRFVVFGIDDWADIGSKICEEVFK
Assay: EMSA

ssRNA substrate
Kd: 0.24 µM
